Measurements published in paper PMC5389562.

Biological target: T1, mCherry-U2AF35 (UniProt Q01081)
T1 sequence: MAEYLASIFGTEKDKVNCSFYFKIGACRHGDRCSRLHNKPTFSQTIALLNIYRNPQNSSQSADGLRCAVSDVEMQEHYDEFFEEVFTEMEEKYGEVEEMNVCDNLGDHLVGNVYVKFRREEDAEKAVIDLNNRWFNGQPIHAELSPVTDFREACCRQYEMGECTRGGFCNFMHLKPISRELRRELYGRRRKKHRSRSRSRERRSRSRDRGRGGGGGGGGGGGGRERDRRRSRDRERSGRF
Assay: single-molecule colocalization/bleaching
Details: 5' GMPS; HEK293T nuclear extract expressing fusion proteins, preincubated 15 min with ATP/phosphocreatine or ATP-depleted at 30 C; pre-mRNA 62.5 nM; +ATP reactions …

Substance: GloC pre-mRNA
- binding signal (% RNA colocalized): 20
